Among the data in patent publication US6770458 are β-galactosidase Activity (relative scale) and fold repression of (CAGA)9 MLP-Luc reporter activity in HepG2 cells values, retold here.

A value given as a limit tells only on which side of the number the result lay.

What all share (test): cell-based or functional assay
Assay [1] deals with p53 fused to the GAL4 DNA-binding domain (pAS2) (UniProt P04386).
For assay [2], the target named is CDK2 fused to the GAL4 DNA-binding domain (pAS2) (UniProt P04386).
For assay [3], the target named is Smad7 (expression construct, tag not specified).

Sequence of p53 fused to the GAL4 DNA-binding domain (pAS2) (P04386 1-147): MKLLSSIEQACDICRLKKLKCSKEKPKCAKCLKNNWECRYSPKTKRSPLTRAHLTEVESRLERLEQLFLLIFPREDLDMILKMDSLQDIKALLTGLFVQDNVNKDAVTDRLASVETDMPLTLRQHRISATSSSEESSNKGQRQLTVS
Sequence of CDK2 fused to the GAL4 DNA-binding domain (pAS2) (P04386 1-147): as above

Substance “FKBP12.6 in pACT (from UniProt Q9Z2I2 1-108)” showed a β-galactosidase Activity (relative scale) in assay [1] of 1.1.

Take “STRAP (Serine-Threonine Kinase Receptors Associated Protein) in pACT (from UniProt Q9Z1Z2 1-350)”: the figures for the β-galactosidase Activity (relative scale) in assay [2] and in assay [1] were 1.2 and under 1, respectively.

On to “STRAP (expression construct, tag not specified) (from UniProt Q9Z1Z2 1-350)”, for which, in assay [3], the fold repression of (CAGA)9 MLP-Luc reporter activity in HepG2 cells is 105 fold.
